Our source for the Km values is paper PMC8177754.

Substrate in this data set: Nc1nc2c(ncn2[C@@H]2O[C@@H]3COP(=O)(O)O[C@H]4[C@@H](O)[C@H](n5cnc6c(N)ncnc65)O[C@@H]4COP(=O)(O)O[C@H]3[C@H]2O)c(=O)[nH]1
The experiment in a line: purified protein. To be noted: pH 8.0. In kind it is biochemical, Shewanella oneidensis.

B1: (Shewanella oneidensis MR-1) (protein)
chain: MNAFLPHDFKVYMDVRHALLAVATALDFVGVDDLHHGHRVAYMAYECASVLGWPDEKKQFAYFAGLIHDCGVSSSEEHLRLLKLMQPEDAHCHSKRGYEALLECPILDVFAPIVLYHHTPWLELQSHDLSVFERDIAALIFLADRTDFLRARYTHGCHEELITLHESMVAENLLAHCGTLFEPEMVNAMCQLVKKDGFWYNMDATHIELLGLEFKANHFYDKELDIGGVKQLARFLARIVDAKSPFTFHHSEKVALLAKLVAKDCGISDTDAELLYVAGLLHDVGKLKTPDLLLHKEGKLTKEEYSIVKRHTVDTEHTLHRFFPKSVIGEWASNHHERLDGSGYPFSKRQEQLDLPSRILAVVDVFQALTQKRPYRGSLSLSEIYDIMQPMVDKGQLDAGVYSILLADIDNFYHLSTQEFQT
In general, Km refers to the concentration of substrate that gives half-maximal velocity. As to B1, the Km came out at 119 ± 60 µM.
